Experimental data from patent US20160152725A1 (Memorial Sloan Kettering, published 2016).
Substitutions are numbered along the chain they refer to. In names and notes the source's numbering stands.

Experiments:
[1] = target: HLA-A2 molecule on the surface of tumor cell lines (human); test: flow cytometry on LAN-1 cells (NB)
[2] = target: HLA-A2 molecule on the surface of tumor cell lines (human); test: flow cytometry on SKNJB cells (NB)
[3] = target: HLA-A2 molecule on the surface of tumor cell lines (human); test: flow cytometry on SKNLD cells (NB)
[4] = target: HLA-A2 molecule on the surface of tumor cell lines (human); test: flow cytometry on HepG2 cells (Liver)
[5] = target: HLA-A2 molecule on the surface of tumor cell lines (human); test: flow cytometry on SKN-JC-1 cells (NB)
[6] = target: HLA-A2 molecule on the surface of tumor cell lines (human); test: flow cytometry on SKN-JC-2 cells (NB)
[7] = target: HLA-A2 molecule on the surface of tumor cell lines (human); test: flow cytometry on SW480 cells (Colon)
[8] = target: HLA-A2 molecule on the surface of tumor cell lines (human); test: flow cytometry on MCF-7 cells (Breast)
[9] = target: HLA-A2 molecule on the surface of tumor cell lines (human); test: flow cytometry on SKBR3 cells (Breast)
[10] = target: HLA-A2 molecule on the surface of tumor cell lines (human); test: flow cytometry on K562 cells (Leukemia)
[11] = target: HLA-A2 molecule on the surface of tumor cell lines (human); test: flow cytometry on SKHEP-1 cells (Liver)
[12] = target: HLA-A2 molecule on the surface of tumor cell lines (human); test: flow cytometry on Colo 205 cells (Colon)
[13] = target: HLA-A2 molecule on the surface of tumor cell lines (human); test: flow cytometry on SKOV-3 cells (Ovarian)
[14] = target: HLA-A2 molecule on the surface of tumor cell lines (human); test: flow cytometry on THP-1 cells (Leukemia)
[15] = target: HLA-A2 molecule on the surface of tumor cell lines (human); test: flow cytometry on BV-173 cells (Leukemia)
[16] = target: HLA-A2 molecule on the surface of tumor cell lines (human); test: flow cytometry on Molt-4 cells (Leukemia)
[17] = target: HLA-A2 molecule on the surface of tumor cell lines (human); test: flow cytometry on OVCAR-3 cells (Ovarian)
[18] = target: HLA-A2 molecule on the surface of tumor cell lines (human); test: flow cytometry on BA25-17 cells (Leukemia)
[19] = target: HLA-A2 molecule on the surface of tumor cell lines (human); test: flow cytometry on BA25-69 cells (Leukemia)
[20] = target: HLA-A2 molecule on the surface of tumor cell lines (human); test: flow cytometry on JMN cells (Mesothelioma)
[21] = target: HLA-A2 molecule on the surface of tumor cell lines (human); test: flow cytometry on SKMEL-5 cells (Melanoma)
[22] = target: HLA-A2 molecule on the surface of tumor cell lines (human); test: flow cytometry on U87 cells (Glioblastoma)
[23] = target: HLA-A2 molecule on the surface of tumor cell lines (human); test: flow cytometry on U251 cells (Glioblastoma)
[24] = target: HLA-A2 molecule on the surface of tumor cell lines (human); test: flow cytometry on U2 OS cells (Osteosarcoma)
[25] = target: HLA-A2 molecule on the surface of tumor cell lines (human); test: flow cytometry on OVCAR3-pp65 cells (Ovarian)
[26] = target: HLA-A2 molecule on the surface of tumor cell lines (human); test: flow cytometry on HTB37-pp65/GFP cells (Colon)
[27] = target: HLA-A2 molecule on the surface of tumor cell lines (human); test: flow cytometry on K562-HLA-A2 cells (Leukemia)
[28] = target: HLA-A2 molecule on the surface of tumor cell lines (human); test: flow cytometry on Caco-2 (HTB-37) cells (Colon)
[29] = target: HLA-A2 molecule on the surface of tumor cell lines (human); test: flow cytometry on SK-ES-1 cells (Ewing's sarcoma)
[30] = target: HLA-A2 molecule on the surface of tumor cell lines (human); test: flow cytometry on MDA-MB-231(HTB-26) cells (Breast)
[31] = target: HLA-A2 molecule on the surface of tumor cell lines (human); test: flow cytometry on MDA-MB-361(HTB-27) cells (Breast)
[32] = target: HLA-A2 molecule on the surface of tumor cell lines (human); test: flow cytometry on MDA-MB-468(HTB-132) cells (Breast)
[33] = target: HLA-A2 molecule on the surface of tumor cell lines (human); test: flow cytometry on NCI-H345 cells (Small cell lung cancer)
[34] = target: HLA-A2 molecule on the surface of tumor cell lines (human); test: flow cytometry on NCI-H522 cells (Non-small cell lung cancer)
[35] = target: HLA-A2 molecule on the surface of tumor cell lines (human); test: flow cytometry on JN-DSRCT cells (Desmoplastic small round cell tumor)
[36] = target: T1, biotinylated HLA-A2/WT1126 (…) monomer (human, biotin at a specific biotinylation site at the C-terminus); test: SPR (Biacore)
T1 construct: also called HLA-A2-WT1 monomer; WT1126/HLA-A2
Experimental: (§1) Kinetics and affinities of various antibodies and WT1₁₂₆/HLA-A2 were analyzed by surface plasmon resonance technology using a Biacore T100 instrument (GE healthcare). Biotinylated WT1₁₂₆/HLA-A2 was captured by streptavidin-fusion protein on a sensor chip (CM5). A control reference surface was prepared for nonspecific binding and refractive index changes. For analysis of the kinetics of interactions, varying concentrations of antibodies were injected at flow rate of 30 μl/min using a running buffer containing 10 mM HEPES, 150 mM NaCl, 3 mM EDTA, and 0.05% Surfactant P-20 (pH 7.4). The association and dissociation phase data were fitted simultaneously to a 1:1 model by using BIAevaluation 3.2. All the experiments were done at 25° C.

[37] = target: T2, HLA-A2/pp65 (…) on T2 cells (human; human cytomegalovirus); test: flow cytometry on peptide-loaded T2 cells
T2 construct: also called T2 cells loaded with control peptide pp65

[38] = target: T1, biotinylated HLA-A2/WT1126 (…) monomer; test: SPR Biacore T100; biotinylated pMHC captured, antibody injected; 1:1 fit
Experimental: as §1

[39] = target: HLA-A2/WT1 187-195 (…) complex (human, biotin at a specific biotinylation site at the C-terminus); test: ELISA on wells coated with the named HLA-A2/peptide monomer, HRP anti-Flag detection, OD 490 nm
[40] = target: HLA-A2/WT1 235-243 (…) complex (human, biotin at a specific biotinylation site at the C-terminus); test: as above
[41] = target: T3, HLA-A2/CDR2 (…) tetramer (human); test: flow cytometry of scFv-displaying yeast, negative control HLA-A2-CDR2 tetramer (y, Binding) against scFv expression (x)
T3 construct: Peptide from cerebellar degeneration-related protein 2; also called negative control (HLA-A2-CDR2) tetramer; irrelevant HLA-A2/CDR2-derived peptide

[42] = target: T1, biotinylated HLA-A2/WT1126 (…) monomer; test: ELISA: wells coated with HLA-A2-WT1 ([..]) monomer, serially diluted scFv, HRP anti-Flag detection, OD 490 nm
Experimental: (§2) The specificity of individual phage clones, soluble scFv and scFv-Fc antibodies was assessed by ELISA at RT with indirectly coated HLA-A2/peptide complexes. Vinyl flat bottom microtiter plates (Thermo Fisher) were used for ELISA assays. Plates were initially coated overnight at 4° C. with BSA-biotin (10 g/ml; 50 μl/well). The next day, the contents were discarded and the plates incubated at RT with streptavidin (10 g/ml; 50 μl/well) for 1 h. The contents were discarded and the plates incubated with recombinant biotinylated HLA-A2/peptide complexes (5 μg/ml; 50 μl/well) at RT for 1 h. The plates were then incubated with 2% milk PBS (150 μl/well) at RT for 1 h. After blocking, the plates were washed 3 times with PBS and then incubated with bacterial supernatant from their respective HB2151 culture plate wells, purified scFv, or purified scFv-Fc at RT for 1 h. After the contents were discarded, the plates were washed 5 times with PBS, and then incubated with a horse radish peroxidase (HRP) conjugated mouse-anti-Flag tag antibody (1:5000 dilution, Sigma Aldrich) to detect the scFv, or a HRP conjugated goat-anti-human Fc antibody (0.5 μg/ml, Jackson Immunoresearch Laboratories) to detect the scFv-Fc. […]

[43] = target: T1, biotinylated HLA-A2/WT1126 (…) monomer; test: ELISA: wells coated with HLA-A2-WT1 (…) monomer, serially diluted scFv, HRP anti-Flag detection, OD 490 nm
Experimental: as §2

[44] = target: T3, HLA-A2/CDR2 (…) tetramer; test: flow cytometry of CAR NK-92 cells, control HLA-A2/CDR2 tetramer (y) against GFP (x)
[45] = target: T4, HLA-A2 on T2 cells (human); test: T2 cells pulsed with peptide, staining with anti-HLA-A2 BB7.2
T4 construct: No peptide added; also called T2 cells alone; T2 cells without peptide

BB7.2 (antibody)
Ratio (BB7.2/isotype) of mean fluorescence intensity [1]: 4.5
Ratio (BB7.2/isotype) of mean fluorescence intensity [2]: 6.4
Ratio (BB7.2/isotype) of mean fluorescence intensity [3]: 0.9
Ratio (BB7.2/isotype) of mean fluorescence intensity [4]: 14.4
Ratio (BB7.2/isotype) of mean fluorescence intensity [5]: 86.8
Ratio (BB7.2/isotype) of mean fluorescence intensity [6]: 53.3
Ratio (BB7.2/isotype) of mean fluorescence intensity [7]: 40.5
Ratio (BB7.2/isotype) of mean fluorescence intensity [8]: 9.9
Ratio (BB7.2/isotype) of mean fluorescence intensity [9]: 1.1
Ratio (BB7.2/isotype) of mean fluorescence intensity [10]: 1.1
Ratio (BB7.2/isotype) of mean fluorescence intensity [11]: 28.3
Ratio (BB7.2/isotype) of mean fluorescence intensity [12]: 32.6
Ratio (BB7.2/isotype) of mean fluorescence intensity [13]: 1
Ratio (BB7.2/isotype) of mean fluorescence intensity [14]: 53.9
Ratio (BB7.2/isotype) of mean fluorescence intensity [15]: 209
Ratio (BB7.2/isotype) of mean fluorescence intensity [16]: 1.1
Ratio (BB7.2/isotype) of mean fluorescence intensity [17]: 7.8
Ratio (BB7.2/isotype) of mean fluorescence intensity [18]: 118
Ratio (BB7.2/isotype) of mean fluorescence intensity [19]: 114
Ratio (BB7.2/isotype) of mean fluorescence intensity [20]: 165
Ratio (BB7.2/isotype) of mean fluorescence intensity [21]: 32.1
Ratio (BB7.2/isotype) of mean fluorescence intensity [22]: 77.5
Ratio (BB7.2/isotype) of mean fluorescence intensity [23]: 16.2
Ratio (BB7.2/isotype) of mean fluorescence intensity [24]: 21.7
Ratio (BB7.2/isotype) of mean fluorescence intensity [25]: 10
Ratio (BB7.2/isotype) of mean fluorescence intensity [26]: 10.9
Ratio (BB7.2/isotype) of mean fluorescence intensity [27]: 28.8
Ratio (BB7.2/isotype) of mean fluorescence intensity [28]: 26.8
Ratio (BB7.2/isotype) of mean fluorescence intensity [29]: 7.7
Ratio (BB7.2/isotype) of mean fluorescence intensity [30]: 111
Ratio (BB7.2/isotype) of mean fluorescence intensity [31]: 0.9
Ratio (BB7.2/isotype) of mean fluorescence intensity [32]: 1.1
Ratio (BB7.2/isotype) of mean fluorescence intensity [33]: 6.2
Ratio (BB7.2/isotype) of mean fluorescence intensity [34]: 15.8
Ratio (BB7.2/isotype) of mean fluorescence intensity [35]: 5.1

B1: Clone45 scFv (scFv)
scFv: EVQLLESGGGLVQPGGSLRLSCAASGFTFSSYAMSWVRQAPGKGLEWVSQIDPWGQETLYADSVKGRFTISRDNSKNTLYLQMNSLRAEDTAVYYCAKLTGRFDYWGQGTLVTVSSGGGGSGGGGSGGGGSTDIQMTQSPSSLSASVGDRVTITCRASQSISSYLNWYQQKPGKAPKLLIYSASQLQSGVPSRFSGSGSGTDFTLTISSLQPEDFATYYCQQGPGTPNTFGQGTKVEIKRA
notes: also called scFv Clone45; parental Clone45
Kd [36]: 300 nM
binding result [37]: no binding
Kd [38]: 263 nM
binding result [39]: no binding
binding result [40]: no binding
binding result [41]: no binding

B2: S3.6 scFv (scFv)
scFv: B1 scFv with Q50L, S163N, D202V
notes: Soluble scFv, Ni-NTA purified, detected with anti-Flag
Kd [38]: 14.1 nM
binding result [39]: no binding
binding result [40]: no binding

B3: S3.3 scFv (scFv)
scFv: B1 scFv with Q50L, D133N, Q185L, S197N
notes: as for B2
Kd [38]: 2.43 nM
binding result [39]: no binding
binding result [40]: no binding
EC50 (read off the curve) [42]: ~40 nmol/L

B4: Q1L scFv (scFv)
scFv: B1 scFv with Q50L
notes: Clone45 with VH-Q50L; Soluble scFv; also called scFv Q1L
Kd [38]: 58.3 nM
koff [38]: 0.0055 s⁻¹
kon [38]: 94300 M⁻¹ s⁻¹

B5: Q2L scFv (scFv)
scFv: B1 scFv with Q50L, Q185L
notes: Clone45 with VH-Q50L and VL-Q53L; Soluble scFv; also called scFv Q2L
Kd [38]: 3.08 nM
binding result [39]: no binding
binding result [40]: no binding
EC50 (read off the curve) [43]: ~100 nmol/L

B6: S3.1 scFv (scFv)
scFv: B1 scFv with Q50L, R87G, S209N
notes: as for B2
Kd [38]: 12.9 nM
binding result [39]: no binding
binding result [40]: no binding
EC50 (read off the curve) [42]: ~60 nmol/L

B7: Q2L-CAR (other)
chain: B1 scFv with Q50L, Q185L
notes: Chimeric antigen receptor on the surface of human T cells or NK-92-MI cells; also called anti-HLA-A2/WT1126 CAR; NK-92-MI-scFv(Q2L); not shown: hinge region, CD8 alpha transmembrane domain, 4-1BB and CD3 zeta chain
binding result [44]: no binding

RMFPNAPYL (also called WT1 peptide) [WT1126 peptide (RMFPNAPYL) by itself]
binding result [45]: binds

AMFPNAPYL (also called A1) [WT1126-Arg1Ala peptide]
binding result [45]: binds

RMFPAAPYL (also called A5) [WT1126-Asn5Ala peptide]
binding result [45]: binds

RMFPNAPAL (also called A8) [WT1126-Tyr8Ala peptide]
binding result [45]: binds
